Legend:
[1] = target: NKG2d (NKG2-D type II integral membrane protein) on NKL cells / NK cells (human) (UniProt P26718); assay: flow cytometry on NKL cells, secondary antibody alone without primary antibody (background control), column 0.6 nM
[2] = target: NKG2d (NKG2-D type II integral membrane protein) on NKL cells / NK cells (human) (UniProt P26718); assay: flow cytometry on NKL cells, secondary antibody alone without primary antibody (background control), column 60 nM
[3] = target: NKG2d (NKG2-D type II integral membrane protein) on NKL cells / NK cells (human) (UniProt P26718); assay: flow cytometry on NKL cells, secondary antibody alone without primary antibody (background control), column 6 nM

Sequence of NKG2d (NKG2-D type II integral membrane protein) on NKL cells / NK cells (human) (P26718 whole entry): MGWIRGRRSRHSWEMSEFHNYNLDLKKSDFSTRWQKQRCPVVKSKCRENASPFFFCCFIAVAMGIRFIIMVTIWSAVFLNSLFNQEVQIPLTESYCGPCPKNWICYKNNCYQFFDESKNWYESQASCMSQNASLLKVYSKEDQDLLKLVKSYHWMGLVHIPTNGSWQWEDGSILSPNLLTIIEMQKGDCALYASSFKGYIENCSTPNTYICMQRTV

- geomean fluorescence [1]: 92.6
- geomean fluorescence [2]: 63.8
- geomean fluorescence [3]: 115
Substance: secondary antibody only (Goat anti hu-Fc AF647)

Source: patent US20240182582A1
